Experimental data reported in patent US20210340205A1 (Novartis, published 2021).

B1: His-GDF15(L294R)/GFRAL(ECD)-His mixture (other)
chain 1: HHHHHHGSGGARNGDHCPLGPGRCCRLHTVRASLEDLGWADWVLSPREVQVTMCIGACPSQFRAANMHAQIKTSLHRLKPDTVPAPCCVPASYNPMVLIQKTDTGVSRQTYDDLLAKDCHCI
chain 2: QTNNCTYLREQCLRDANGCKHAWRVMEDACNDSDPGDPCKMRNSSYCNLSIQYLVESNFQFKECLCTDDFYCTVNKLLGKKCINKSDNVKEDKFKWNLTTRSHHGFKGMWSCLEVAEACVGDVVCNAQLASYLKACSANGNPCDLKQCQAAIRFFYQNIPFNIAQMLAFCDCAQSDIPCQQSKEALHSKTCAVNMVPPPTCLSVIRSCQNDELCRRHYRTFQSKCWQRVTRKCHEDENCISTLSKQDLTCSGSDDCKAAYIDILGTVLQVQCTCRTITQSEESLCKIFQHMLHRKSCFNYPTLSNVKGMALYTRKHANKITLTGFHSPFNGEGSHHHHHH
B2: His-GDF15(L294R) (ligand)
chain: B1 chain 1
notes: Non-functional mutant, prepared in the same way as wild-type His-GDF15 (E. coli, see US 2017/204149); also called His-GDF15(L294R) mutant

Target: T1, Human cRET(ECD)-Fc (human)
T1 construct: also called RET-Fc
T1 sequence (chain, as listed by the source): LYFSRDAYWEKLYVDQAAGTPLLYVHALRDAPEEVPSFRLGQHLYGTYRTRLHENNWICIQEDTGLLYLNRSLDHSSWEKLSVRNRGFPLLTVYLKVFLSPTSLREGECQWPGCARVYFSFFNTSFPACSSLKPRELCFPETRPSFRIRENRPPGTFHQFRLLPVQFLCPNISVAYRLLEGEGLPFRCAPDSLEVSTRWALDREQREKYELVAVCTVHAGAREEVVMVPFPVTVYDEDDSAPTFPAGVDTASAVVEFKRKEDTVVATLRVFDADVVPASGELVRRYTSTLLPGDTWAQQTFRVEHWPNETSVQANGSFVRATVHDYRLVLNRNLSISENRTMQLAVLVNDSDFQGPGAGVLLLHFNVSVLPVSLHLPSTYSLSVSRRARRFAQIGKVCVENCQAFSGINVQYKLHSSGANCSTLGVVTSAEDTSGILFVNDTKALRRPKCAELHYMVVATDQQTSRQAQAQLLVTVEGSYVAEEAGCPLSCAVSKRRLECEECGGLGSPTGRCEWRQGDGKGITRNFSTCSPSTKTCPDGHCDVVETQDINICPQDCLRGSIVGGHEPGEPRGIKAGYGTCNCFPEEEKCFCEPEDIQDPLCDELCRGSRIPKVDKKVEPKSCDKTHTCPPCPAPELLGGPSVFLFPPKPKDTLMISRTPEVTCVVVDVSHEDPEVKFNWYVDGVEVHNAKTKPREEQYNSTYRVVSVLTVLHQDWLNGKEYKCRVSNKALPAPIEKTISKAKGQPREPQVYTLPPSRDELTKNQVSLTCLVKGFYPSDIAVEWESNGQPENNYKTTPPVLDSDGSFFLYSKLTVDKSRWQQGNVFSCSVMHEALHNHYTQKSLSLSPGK
Experiment: MSD plate assay, cRET(ECD)-Fc coated; biotinylated anti-6xHis mAb and streptavidin sulfo-tag
Experimental: Methods: To generate soluble GDF15/GFRAL complexes in vitro, recombinant GFRAL(D2D3)-App, GFRAL(ECD)-His, and GFRAL(ECD)-Fc proteins purified in Example 1 were freshly mixed with equimolar amounts of biotinylated His-GDF15 (1250 pM) in DPBS supplemented with 50 μM CaCl₂. The mixtures were incubated at room temperature for 60 min to allow complex formation. The complex made was stable at 4° C. and was used directly for in vitro binding assays against cRET(ECD)-Fc coated on plastic plates without further purification. Three different GDF15/GFRAL ECD complexes were prepared, including His-GDF15(biotin)/GFRAL(D2D3)-App, His-GDF15(biotin)/GFRAL (ECD)-His, and His-GDF15(biotin)/GFRAL (ECD)-Fc in the same manner. […] His-GDF15(L294R) was mixed with GFRAL(ECD)-His to generate a negative control for GDF15/GFRAL/cRET interaction. […]
Methods: Mixtures of purified biotinylated His-GDF15 and GFRAL(ECD)-His or His-GDF15(L294R) and GFRAL(ECD)-His were prepared as described in Example 3. […] Binding of proteins to plates coated with cRET(ECD)-Fc was detected using biotinylated mouse anti-6×His tag monoclonal antibody followed by streptavidin sulfo-tag, and otherwise by methods described in Example 3.

Row | Binder | binding result
1 | B1 | no binding (tested: 0-5 log 10 pM)
2 | B2 | no binding (tested: 0-5 log 10 pM)
